From US20110010785A1, “PRODUCTS AND THEIR USE FOR THE DIAGNOSIS, PREVENTION AND/OR CARE OF HUMAN AND/OR ANIMAL PATHOLOGIES CHARACTERISED BY THE ANOMALOUS DEPOSITION OF B-AMYLOID AND/OR AMYLOID-LIKE SUBSTANCE IN HUMAN AND/OR ANIMAL ORGANS AND TISSUES, AND SCREENING METHOD FOR DETERMINING THE RISK OF SUCH PATHOLOGIES” (Fondazione I.R.C.C.S Istituto Neurologico "Carlo Besta", priority 2007, published 2011) come the findings set out here.

The assay concerns the target T1, wild-type Aβ1-40 (Homo sapiens, UniProt P05067).
T1 construct: lipophile probe (4-dodecylaminocarbonylfluorene-9-ylmethylsuccinimidyl carbonate), non-protein purification handle (N); made in house; host or cells: chemical solid phase synthesis (no expression host)
Put plainly: Inhibition of amyloidogenesis: hexapeptides co-incubated with wild-type Aβ1-40 (ultrastructural and histochemical study). It counts as biochemical. Particulars: for effect on fibrillogenesis of Aβ1-40: co-incubated with wild-type Aβ1-40, equimolar or in excess (hexapeptide:Aβ1-40=5:1). As for the experimental part:
For the ultrastructural investigation, 5 μl of suspension of wild-type Aβ1-40, mutated Aβ1-40 and their equimolar mixture were drawn at incubation times in the range of 1 hour-20 days, deposited on nickel screen covered with Formvar-Carbon for 5 minutes, negatively coloured with an over-saturated solution of uranyl and observed under electronic microscope (EM109 Zeiss). On the twentieth day of incubation, aliquots of the samples were centrifuged at 15,000 g for 15 minutes. The pellets thus obtained were fixed in 2.5% glutaraldehyde in phosphate buffer, pH 7.4, post-fixed in 1% osmium tetroxide, dehydrated in acetone and included in epoxy rein (Spurr, Electron Microscopy Sciences). Ultrafine sections (500 Å) were collected on copper screens, coloured with uranyl acetate and lead citrate and observed under the electronic microscope.
In order to verify if and in what measure the aggregates were constituted by amyloid, 5 μl of solution of each sample, for the different incubation times, was collected on polylysinated slides (Bio-Optical), coloured with Congo Red and examined with polarised light microscope (Nikon Eclipse E-800).
The two hexapeptides were co-incubated with wild-type Aβ1-40 at equimolar concentration or in excess (hexapeptide:Aβ1-40=5:1). The mixtures were prepared for the ultrastructural and histochemical study as described in example 2.

T1 sequence (P05067 672-711): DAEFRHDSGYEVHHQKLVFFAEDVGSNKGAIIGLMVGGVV

As for DAEFRH, the “effect on fibrillogenesis of Aβ1-40” value is “inhibit the fibrillogenesis of Aβ1-40”.
For “DVEFRH [synthetic peptide, first six amino acids of Aβ with valine in place of alanine in position 2]”, the “effect on fibrillogenesis of Aβ1-40” value is recorded as “inhibit the fibrillogenesis of Aβ1-40”. Moreover, the “inhibitory activity on fibrillogenesis relative to wild-type hexapeptide” value (co-incubated with wild-type Aβ1-40, equimolar or 5:1) is given as “more active than the corresponding wild-type”.
